The values below come from IntAct's records for PubMed 24485456.

First the molecules themselves.
B1: Synaptogenesis protein syg-2 (Caenorhabditis elegans), Q9U3P2 (parent)
chain: MLSQAILLWLFGSIHISSQFFLESPSNLSTIAGESITFRCSAEKSPEPIVYSQWKSNTGSLLGYHQEGILPGHQGRFSYIKQNAEELHLKITHVNLDDDGEYECQMLHPEEGPIRAKSFLNIIVPPQLVYFSNYQPNSIIAVKENTPLNITCVVPNVKPEPEVLWYMDGKVMSRDVKQASTPHLNKTFTVYTSLVVQSDRNDHGKVITCEAFQKETDIRITTNTTLDVLFPPSDPTVEILRNPSALRSGDNVTIACSVTGGNPPPDVFWYHENKRLQSHSTLDTRSKEIKNIYSFIASQNDNMAEYECRANNSRTGNPKRKAMKLEVNYPPASVELFGESNIRYGSSANIQCKSLPSNPASQITWIINGRSVPTPTQREFVVENGIVSSSNVSVHSNELSVEAHQINVECMATNPEGSSAKQHVIKIIAPPKAPIITGLEDRKFFEGDIVNVTCEAQGGNPLAELSWYRGSEKHLVKGRKKMKWSQVKKKLVMSLLCLCEVVIMNFFRFSKNVFYFFRFTLFIECGVNGAHNEVAGFSSYSTLALRVDRTMNTQRLKCEATNAALDEPLIESQYLSVYYPPRRVLIRPADSGDQRLLVGKSARLVCGTLSSNPAAHISWQFSRATDDNKVHLGDVSLNETTRDNGFNVENVLSFTPTEEYDGTVVHCIANHPEWKHSVNTSFPLNVMYPPKMLVNDPVTVVMSEGDSFKENLTVRGNPAISLWQWRKNGVPFDHTIGRVFARGAVLSGKQLLSTDAGVYTLTATNSVGSTNITIKLAVEYSARITSISTPVIAATGDTVLLECEADGEPSKANMIHWYKNGEILAAQHRGHKKAILRLNATEQQSGEYTCKADNGIGVPAEGQTFLLVNSAPRVLPVARYAKTAGILGGVAKARCKVYAVPTVEFVWEKDEQLIKKNSSKYSIVNTQIDYSTYESTLWIKNIVPDDYTKKVKCIARNSFGTDHLSIPIIPPTHPDEPFNLTMTNSTLNTISVAWEPRFDGGSDQIFEVKYRRQNDDLIHLVNTTHTNLRLSGLATANTYFFQIRSINARGFASSWTSPVIFATLNEDGVNVAMIRNEKLKLTTWIPYILIFIVLFMLLNVVICCFVCNRTKKRKLREKTEMARTAINGGDVRQVQMYGTMMGNDGMSRRDIDDRPEMSEDEHSVRTMIEVSPNGYMQPIEPMLYESTGLLEYDYQTRSYMGSSQGTRSMTYANVPYPEPPQPSYHSNWNSLQRQSNNNTSPQHHLSTFINPNMGVRAGPINYAQLDGDLV
partner: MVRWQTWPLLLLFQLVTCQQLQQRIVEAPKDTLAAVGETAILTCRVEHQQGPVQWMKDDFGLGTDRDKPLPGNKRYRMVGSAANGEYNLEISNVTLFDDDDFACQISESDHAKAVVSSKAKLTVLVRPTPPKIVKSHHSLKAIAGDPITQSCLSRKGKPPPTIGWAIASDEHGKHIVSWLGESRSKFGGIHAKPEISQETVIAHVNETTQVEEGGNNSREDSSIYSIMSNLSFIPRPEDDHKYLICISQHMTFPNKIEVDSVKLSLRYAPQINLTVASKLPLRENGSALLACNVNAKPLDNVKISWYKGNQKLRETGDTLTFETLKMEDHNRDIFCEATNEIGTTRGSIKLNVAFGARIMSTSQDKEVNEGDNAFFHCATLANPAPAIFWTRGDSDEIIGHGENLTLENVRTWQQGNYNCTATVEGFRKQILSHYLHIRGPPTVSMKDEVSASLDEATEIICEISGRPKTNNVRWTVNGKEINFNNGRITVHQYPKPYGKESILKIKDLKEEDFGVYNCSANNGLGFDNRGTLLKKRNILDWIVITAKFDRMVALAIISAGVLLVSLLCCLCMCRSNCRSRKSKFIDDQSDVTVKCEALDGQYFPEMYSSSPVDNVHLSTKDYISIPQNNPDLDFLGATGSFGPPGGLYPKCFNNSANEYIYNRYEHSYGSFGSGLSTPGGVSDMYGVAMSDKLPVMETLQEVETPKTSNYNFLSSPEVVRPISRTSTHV
B2: Synaptogenesis protein syg-1 (Caenorhabditis elegans), B1Q236 (parent)
chain: B1 partner
partner: B1 chain

The variants in the first experiment derive from B1. The note with it: with syg1_caeel syg-1, B1Q236.
As for R115A, the “effect of a mutation on the interaction” value was “decreasing interaction strength”.

As for L61A, the “effect of a mutation on the interaction” value is on record as “decreasing interaction strength”.

Take Q105A: the “effect of a mutation on the interaction” value was “disrupting interaction strength”.

For Q53A, the “effect of a mutation on the interaction” value is given as “decreasing interaction strength”.

The variants in another experiment derive from B2. To be noted: with syg2_caeel syg-2, Q9U3P2.
Q105A: the “effect of a mutation on the interaction” value was “decreasing interaction strength”.

As for Q54A;M56A;F60A;S107A, the “effect of a mutation on the interaction” value is “disrupting interaction strength”.

With Q54A;F60A, the “effect of a mutation on the interaction” value was “disrupting interaction strength”.

Regarding Q54A, the “effect of a mutation on the interaction” value is recorded as “decreasing interaction strength”.

On to F60A, for which the “effect of a mutation on the interaction” value is given as “disrupting interaction strength”.
